The target in assay [1] is SP6 tailspike protein gp46 (bacteriophage SP6). Kind of assay: cryo-EM structure.
Assay [2] has as its target SP6 tailspike protein gp47 (bacteriophage SP6). Kind of assay: cryo-EM structure.

“SP6 tailspike protein gp46 (natural protein)” showed a stoichiometry N in assay [1] of 3.
In assay [2], “SP6 tailspike protein gp47 (natural protein)” had a stoichiometry N of 3.

For the origin of these results see paper PMC5503682.
